According to patent EP4786492A1:

How the values were obtained:
[1] = target: DLL3 endogenously expressed on NCI-H82 cells (UniProt Q9NYJ7); assay: FACS on NCI-H82 cells; antibody 4 nM
[2] = target: DLL3 endogenously expressed on NCI-H82 cells (UniProt Q9NYJ7); assay: FACS on NCI-H82 cells; antibody 20 nM
[3] = target: DLL3 endogenously expressed on NCI-H82 cells (UniProt Q9NYJ7); assay: FACS on NCI-H82 cells; antibody 0.8 nM
[4] = target: DLL3 endogenously expressed on NCI-H82 cells (UniProt Q9NYJ7); assay: FACS on NCI-H82 cells; antibody 100 nM
[5] = target: DLL3 endogenously expressed on NCI-H82 cells (UniProt Q9NYJ7); assay: FACS on NCI-H82 cells; antibody 0.16 nM
[6] = target: mouse DLL3 on CHO-K1-mDLL3 cells (mouse) (UniProt O88516); assay: FACS, CHO-K1-mDLL3 cells, 4 nM antibody
Sequence of mouse DLL3 on CHO-K1-mDLL3 cells (mouse) (O88516 other isoform, or with tags, fused parts or gaps limits assumed): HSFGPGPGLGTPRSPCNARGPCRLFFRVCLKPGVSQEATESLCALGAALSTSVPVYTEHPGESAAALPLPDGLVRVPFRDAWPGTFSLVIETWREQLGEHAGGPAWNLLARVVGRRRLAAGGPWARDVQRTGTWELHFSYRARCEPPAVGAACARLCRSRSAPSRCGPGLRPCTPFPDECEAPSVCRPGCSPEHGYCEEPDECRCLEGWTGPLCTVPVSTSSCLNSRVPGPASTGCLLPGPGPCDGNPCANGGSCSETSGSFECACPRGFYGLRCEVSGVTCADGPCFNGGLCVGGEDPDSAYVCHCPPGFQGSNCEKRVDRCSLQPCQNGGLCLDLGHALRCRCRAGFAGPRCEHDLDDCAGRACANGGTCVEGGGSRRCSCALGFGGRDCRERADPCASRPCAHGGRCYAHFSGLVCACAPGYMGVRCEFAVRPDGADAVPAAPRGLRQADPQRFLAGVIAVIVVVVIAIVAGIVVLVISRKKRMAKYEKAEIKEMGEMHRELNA

[7] = target: DLL3 endogenously expressed on NCI-H82 cells (UniProt Q9NYJ7); assay: FACS on NCI-H82 cells; antibody 0.032 nM
[8] = target: mouse DLL3 on CHO-K1-mDLL3 cells (mouse) (UniProt O88516); assay: FACS, CHO-K1-mDLL3 cells, 20 nM antibody
[9] = target: DLL3 endogenously expressed on NCI-H82 cells (UniProt Q9NYJ7); assay: FACS on NCI-H82 cells; antibody 0.0064 nM
[10] = target: mouse DLL3 on CHO-K1-mDLL3 cells (mouse) (UniProt O88516); assay: FACS, CHO-K1-mDLL3 cells, 0.8 nM antibody
[11] = target: mouse DLL3 on CHO-K1-mDLL3 cells (mouse) (UniProt O88516); assay: FACS, CHO-K1-mDLL3 cells, 100 nM antibody
[12] = target: DLL3 endogenously expressed on NCI-H82 cells (UniProt Q9NYJ7); assay: FACS on NCI-H82 cells; antibody 0.00128 nM
[13] = target: mouse DLL3 on CHO-K1-mDLL3 cells (mouse) (UniProt O88516); assay: FACS, CHO-K1-mDLL3 cells, 0.16 nM antibody
[14] = target: monkey DLL3 on CHO-K1-cyno DLL3 cells (cynomolgus monkey); assay: FACS, CHO-K1-cyno DLL3 cells, 4 nM antibody
Sequence of monkey DLL3 on CHO-K1-cyno DLL3 cells (cynomolgus monkey) (chain, as listed by the source limits assumed): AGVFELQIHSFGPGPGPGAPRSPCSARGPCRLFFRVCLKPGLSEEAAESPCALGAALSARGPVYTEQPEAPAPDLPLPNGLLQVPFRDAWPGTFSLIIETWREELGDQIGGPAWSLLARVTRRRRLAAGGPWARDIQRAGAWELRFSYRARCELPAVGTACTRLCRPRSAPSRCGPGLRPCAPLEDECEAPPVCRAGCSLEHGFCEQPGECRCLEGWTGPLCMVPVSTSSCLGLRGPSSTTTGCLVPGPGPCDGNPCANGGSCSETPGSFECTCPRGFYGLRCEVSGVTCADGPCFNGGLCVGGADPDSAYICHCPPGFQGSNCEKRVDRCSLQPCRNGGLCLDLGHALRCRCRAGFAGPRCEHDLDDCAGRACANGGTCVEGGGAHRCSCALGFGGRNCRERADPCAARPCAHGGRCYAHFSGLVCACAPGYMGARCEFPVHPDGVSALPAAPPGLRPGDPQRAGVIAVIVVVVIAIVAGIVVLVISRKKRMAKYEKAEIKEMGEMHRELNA

[15] = target: mouse DLL3 on CHO-K1-mDLL3 cells (mouse) (UniProt O88516); assay: FACS, CHO-K1-mDLL3 cells, 0.032 nM antibody
[16] = target: monkey DLL3 on CHO-K1-cyno DLL3 cells (cynomolgus monkey); assay: FACS, CHO-K1-cyno DLL3 cells, 20 nM antibody
[17] = target: mouse DLL3 on CHO-K1-mDLL3 cells (mouse) (UniProt O88516); assay: FACS, CHO-K1-mDLL3 cells, 0.0064 nM antibody
[18] = target: monkey DLL3 on CHO-K1-cyno DLL3 cells (cynomolgus monkey); assay: FACS, CHO-K1-cyno DLL3 cells, 0.8 nM antibody
[19] = target: monkey DLL3 on CHO-K1-cyno DLL3 cells (cynomolgus monkey); assay: FACS, CHO-K1-cyno DLL3 cells, 100 nM antibody
[20] = target: mouse DLL3 on CHO-K1-mDLL3 cells (mouse) (UniProt O88516); assay: FACS, CHO-K1-mDLL3 cells, 0.00128 nM antibody
[21] = target: monkey DLL3 on CHO-K1-cyno DLL3 cells (cynomolgus monkey); assay: FACS, CHO-K1-cyno DLL3 cells, 0.16 nM antibody
[22] = target: monkey DLL3 on CHO-K1-cyno DLL3 cells (cynomolgus monkey); assay: FACS, CHO-K1-cyno DLL3 cells, 0.032 nM antibody
[23] = target: monkey DLL3 on CHO-K1-cyno DLL3 cells (cynomolgus monkey); assay: FACS, CHO-K1-cyno DLL3 cells, 0.0064 nM antibody
[24] = target: monkey DLL3 on CHO-K1-cyno DLL3 cells (cynomolgus monkey); assay: FACS, CHO-K1-cyno DLL3 cells, 0.00128 nM antibody
[25] = target: human DLL1 protein (Acro, Cat. No. DL1-H52H8) (human) (UniProt O00548); assay: ELISA, coated hDLL1; maximum over 0.1, 1, 10, 100 nM antibody
Sequence of human DLL1 protein (Acro, Cat. No. DL1-H52H8) (human) (O00548 18-540 limits assumed): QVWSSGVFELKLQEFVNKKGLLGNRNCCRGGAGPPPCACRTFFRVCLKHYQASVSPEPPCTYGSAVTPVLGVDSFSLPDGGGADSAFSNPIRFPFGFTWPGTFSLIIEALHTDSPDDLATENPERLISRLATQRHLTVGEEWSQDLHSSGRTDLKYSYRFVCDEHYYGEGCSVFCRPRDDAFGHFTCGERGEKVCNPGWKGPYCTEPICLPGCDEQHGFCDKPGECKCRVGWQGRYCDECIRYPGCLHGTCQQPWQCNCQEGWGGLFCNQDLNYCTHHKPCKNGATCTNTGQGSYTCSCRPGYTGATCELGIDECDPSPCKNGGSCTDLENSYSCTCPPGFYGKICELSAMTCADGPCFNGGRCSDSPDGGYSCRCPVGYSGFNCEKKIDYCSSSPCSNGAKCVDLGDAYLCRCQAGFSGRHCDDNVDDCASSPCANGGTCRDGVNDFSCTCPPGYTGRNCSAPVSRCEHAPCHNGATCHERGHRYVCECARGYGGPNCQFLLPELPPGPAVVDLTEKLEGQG

[26] = target: human DLL4 protein (Acro, Cat. No. DL4-H5227) (human) (UniProt Q9NR61); assay: ELISA, coated hDLL4; maximum over 0.1, 1, 10, 100 nM antibody
Sequence of human DLL4 protein (Acro, Cat. No. DL4-H5227) (human) (Q9NR61 27-524 limits assumed): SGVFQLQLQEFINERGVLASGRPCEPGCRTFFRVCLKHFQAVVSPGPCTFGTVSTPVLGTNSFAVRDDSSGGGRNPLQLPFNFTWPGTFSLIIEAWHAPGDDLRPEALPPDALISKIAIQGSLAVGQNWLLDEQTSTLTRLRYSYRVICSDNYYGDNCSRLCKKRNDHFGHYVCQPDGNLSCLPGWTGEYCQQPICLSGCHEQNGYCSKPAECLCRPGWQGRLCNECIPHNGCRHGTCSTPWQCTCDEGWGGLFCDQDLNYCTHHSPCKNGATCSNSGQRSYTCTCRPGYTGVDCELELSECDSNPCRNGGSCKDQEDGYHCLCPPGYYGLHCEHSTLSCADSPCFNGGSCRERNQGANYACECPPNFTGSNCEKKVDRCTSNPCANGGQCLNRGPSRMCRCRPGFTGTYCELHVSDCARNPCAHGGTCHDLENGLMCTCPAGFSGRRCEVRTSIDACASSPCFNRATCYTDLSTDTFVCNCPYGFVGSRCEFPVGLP

[27] = target: human DLL3 protein (extracellular segment, His tag) (human) (UniProt Q9NYJ7); assay: SPR (Biacore 8K), antibody captured on Protein A chip, DLL3 antigen in solution, 1:1 Langmuir fit
Sequence of human DLL3 protein (extracellular segment, His tag) (human) (Q9NYJ7 27-492): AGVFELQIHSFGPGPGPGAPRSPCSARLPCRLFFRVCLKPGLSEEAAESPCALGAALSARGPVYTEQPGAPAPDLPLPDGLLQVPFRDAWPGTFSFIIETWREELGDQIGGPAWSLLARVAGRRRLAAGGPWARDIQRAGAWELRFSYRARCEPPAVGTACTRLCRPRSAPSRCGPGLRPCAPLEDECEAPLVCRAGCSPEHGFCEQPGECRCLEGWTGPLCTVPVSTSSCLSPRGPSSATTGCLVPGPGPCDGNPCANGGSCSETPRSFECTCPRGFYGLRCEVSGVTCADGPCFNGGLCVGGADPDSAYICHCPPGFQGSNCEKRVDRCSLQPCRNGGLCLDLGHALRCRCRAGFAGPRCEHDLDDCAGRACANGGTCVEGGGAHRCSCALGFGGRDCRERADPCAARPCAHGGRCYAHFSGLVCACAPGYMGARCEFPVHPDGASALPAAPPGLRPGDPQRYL

[28] = target: human delta-like ligand 3 (DLL3) on SHP77 cells (human) (UniProt Q9NYJ7); assay: FACS on SHP77 cells
Sequence of human delta-like ligand 3 (DLL3) on SHP77 cells (human) (Q9NYJ7 27-618, stated change not applied): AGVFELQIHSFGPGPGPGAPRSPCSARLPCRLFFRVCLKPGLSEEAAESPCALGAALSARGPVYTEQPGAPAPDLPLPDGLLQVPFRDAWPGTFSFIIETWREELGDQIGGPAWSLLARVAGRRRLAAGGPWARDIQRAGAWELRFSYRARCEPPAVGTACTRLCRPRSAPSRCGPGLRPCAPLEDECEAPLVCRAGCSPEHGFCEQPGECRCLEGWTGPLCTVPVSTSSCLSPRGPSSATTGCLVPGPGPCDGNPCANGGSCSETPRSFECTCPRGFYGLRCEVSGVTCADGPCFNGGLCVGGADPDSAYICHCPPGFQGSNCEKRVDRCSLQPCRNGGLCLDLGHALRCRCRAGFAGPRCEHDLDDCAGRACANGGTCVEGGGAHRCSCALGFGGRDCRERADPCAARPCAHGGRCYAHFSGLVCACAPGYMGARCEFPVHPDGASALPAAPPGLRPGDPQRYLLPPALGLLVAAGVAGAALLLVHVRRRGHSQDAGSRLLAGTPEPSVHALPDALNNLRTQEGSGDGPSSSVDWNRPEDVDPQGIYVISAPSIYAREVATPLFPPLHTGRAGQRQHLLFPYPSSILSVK

[29] = target: human DLL3 protein expressed on CHO-K1 recombinant cells (human DLL3 extracellular segment fused to EpCAM transmembrane and intracellular regions) (human) (UniProt Q9NYJ7); assay: FACS, CHO-K1 hDLL3 cells, 4 nM antibody
Sequence of human DLL3 protein expressed on CHO-K1 recombinant cells (human DLL3 extracellular segment fused to EpCAM transmembrane and intracellular regions) (human) (Q9NYJ7 other isoform, or with tags, fused parts or gaps limits assumed): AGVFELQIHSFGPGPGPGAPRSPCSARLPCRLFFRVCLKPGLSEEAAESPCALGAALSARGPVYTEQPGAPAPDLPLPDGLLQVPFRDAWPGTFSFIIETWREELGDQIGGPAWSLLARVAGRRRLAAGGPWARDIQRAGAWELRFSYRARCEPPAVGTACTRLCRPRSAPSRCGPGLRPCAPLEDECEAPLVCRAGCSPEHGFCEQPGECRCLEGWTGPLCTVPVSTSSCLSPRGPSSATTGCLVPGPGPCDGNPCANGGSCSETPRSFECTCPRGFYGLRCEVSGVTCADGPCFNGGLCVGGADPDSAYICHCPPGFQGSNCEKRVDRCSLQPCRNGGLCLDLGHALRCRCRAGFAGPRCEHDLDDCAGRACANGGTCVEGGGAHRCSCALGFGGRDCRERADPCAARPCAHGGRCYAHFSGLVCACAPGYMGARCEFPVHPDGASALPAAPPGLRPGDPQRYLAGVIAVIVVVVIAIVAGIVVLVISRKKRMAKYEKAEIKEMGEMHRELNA

[30] = target: human DLL3 protein expressed on CHO-K1 recombinant cells (human DLL3 extracellular segment fused to EpCAM transmembrane and intracellular regions) (human) (UniProt Q9NYJ7); assay: FACS, CHO-K1 hDLL3 cells, 20 nM antibody
[31] = target: human DLL3 protein expressed on CHO-K1 recombinant cells (human DLL3 extracellular segment fused to EpCAM transmembrane and intracellular regions) (human) (UniProt Q9NYJ7); assay: FACS, CHO-K1 hDLL3 cells, 0.8 nM antibody
[32] = target: human DLL3 protein expressed on CHO-K1 recombinant cells (human DLL3 extracellular segment fused to EpCAM transmembrane and intracellular regions) (human) (UniProt Q9NYJ7); assay: FACS, CHO-K1 hDLL3 cells, 100 nM antibody
[33] = target: human DLL3 protein expressed on CHO-K1 recombinant cells (human DLL3 extracellular segment fused to EpCAM transmembrane and intracellular regions) (human) (UniProt Q9NYJ7); assay: FACS, CHO-K1 hDLL3 cells, 0.16 nM antibody
[34] = target: human DLL3 protein expressed on CHO-K1 recombinant cells (human DLL3 extracellular segment fused to EpCAM transmembrane and intracellular regions) (human) (UniProt Q9NYJ7); assay: FACS, CHO-K1 hDLL3 cells, 0.032 nM antibody
[35] = target: human DLL3 protein expressed on CHO-K1 recombinant cells (human DLL3 extracellular segment fused to EpCAM transmembrane and intracellular regions) (human) (UniProt Q9NYJ7); assay: FACS, CHO-K1 hDLL3 cells, 0.0064 nM antibody
[36] = target: human DLL3 protein expressed on CHO-K1 recombinant cells (human DLL3 extracellular segment fused to EpCAM transmembrane and intracellular regions) (human) (UniProt Q9NYJ7); assay: FACS, CHO-K1 hDLL3 cells, 0.00128 nM antibody

Sequence of DLL3 endogenously expressed on NCI-H82 cells (Q9NYJ7 27-618): as the sequence (Q9NYJ7 27-618, stated change not applied) above

B1: Hab009VL3aVH1-hFc (scFv, part only; not given: VL-VH linker and human IgG1 Fc, V domains shown, not shown: another chain or arm of the molecule; a dimerising Fc or GST; small tags and cut ends)
VL: DIVMTQSPLSLPVTPGEPASISCRASQTISDYLHWYLQKSHQSPQLLIKYASQSISGVPDRFSGSGSGTDFTLKISRVEAEDVGVYYCQQGHSFPLTFGQGTKLEIK
VH: EVQLVQSGAEVKKPGASVKVSCKASGYTFTSYWMHWVRQAPGQRLEWMGTIYPGNSDTRYNQKFKDRVTITADTSASTAYMELSSLRSEDTAVYYCTRSYDYGDLDYWGQGTTVTVSS
MFI [1]: 738 | MFI [2]: 796 | MFI [3]: 709 | MFI [4]: 872 | MFI [5]: 669 | MFI [6]: 458 MFI | MFI [7]: 371 | MFI [8]: 491 MFI | MFI [9]: 179 | MFI [10]: 413 MFI | MFI [11]: 553 MFI | MFI [12]: 123 | MFI [13]: 345 MFI | MFI [14]: 30000 MFI | MFI [15]: 287 MFI | MFI [16]: 30000 MFI | MFI [17]: 269 MFI | MFI [18]: 24700 MFI | MFI [19]: 29600 MFI | MFI [20]: 190 MFI | MFI [21]: 10600 MFI | MFI [22]: 4020 MFI | MFI [23]: 3760 MFI | MFI [24]: 1450 MFI | Emax of OD450 nm binding value [25]: 0.06 OD450 nm | Emax of OD450 nm binding value [26]: 0.06 OD450 nm | Kd [27]: 0.304 nM | koff [27]: 0.00175 s⁻¹ | kon [27]: 5.76e+06 M⁻¹ s⁻¹

B2: Hab013VL2VH2a-hFc (scFv, part only; not given: scFv linker and human IgG1 Fc, V domains shown, not shown: another chain or arm of the molecule; a dimerising Fc or GST; small tags and cut ends)
VL: EIVLTQSPATLSLSPGERATLSCRASKSVSTSGFSYMHWYQQKPGQPPRLLIYLASNLESGIPARFSGSGSGTDFTLTISSLEPEDFAVYYCQHSRELPFTFGQGTKLEIK
VH: EVQLVQSGAEVKKPGSSVKVSCKASGYAFSNYWINWVRQAPGQGLEWMGQINPGDGDTIYNSKFKGRVTITADKSTSTAYMELSSLRSEDTAVYYCEREGRNYGDFAYWGQGTTVTVSS
MFI at 0.00128 nM [28]: 116 MFI | MFI at 0.0064 nM [28]: 131 MFI | MFI at 0.032 nM [28]: 183 MFI | MFI at 0.16 nM [28]: 323 MFI | MFI at 0.8 nM [28]: 541 MFI | MFI at 4 nM [28]: 719 MFI | MFI at 20 nM [28]: 876 MFI | MFI at 100 nM [28]: 1140 MFI | MFI [1]: 1030 | MFI [2]: 1170 | MFI [3]: 831 | MFI [4]: 1520 | MFI [5]: 670 | MFI [29]: 14900 MFI | MFI [6]: 557 MFI | MFI [7]: 356 | MFI [30]: 16300 MFI | MFI [8]: 655 MFI | MFI [9]: 185 | MFI [31]: 11200 MFI | MFI [32]: 19500 MFI | MFI [10]: 463 MFI | MFI [11]: 764 MFI | MFI [12]: 130 | MFI [33]: 3190 MFI | MFI [13]: 313 MFI | MFI [34]: 789 MFI | MFI [15]: 179 MFI | MFI [35]: 270 MFI | MFI [17]: 125 MFI | MFI [36]: 164 MFI | MFI [20]: 113 MFI | Emax of OD450 nm binding value [25]: 0.05 OD450 nm | Emax of OD450 nm binding value [26]: 0.05 OD450 nm | Kd [27]: 0.112 nM | koff [27]: 0.000371 s⁻¹ | kon [27]: 3.32e+06 M⁻¹ s⁻¹

B3: Hab006VL4VH2-hFc (scFv, part only; not given: scFv linker and human IgG1 Fc, V domains shown, not shown: another chain or arm of the molecule; a dimerising Fc or GST; small tags and cut ends)
VL: DIVMTQSPDSLAVSLGERATINCRATKSISKYLAWYQQKPGQTNKLLIFSGSTLQSGVPDRFSGSGSGTDFTLTISSLQAEDVAVYYCQQHHEYPYTFGGGTKVEIK
VH: EVQLVQSGAEVKKPGASVKVSCKASGYTFTSYWMHWVRQAPGQRLEWMGVIDPSDSLANYNQEFKGRVTLTVDTSASTAYMELSSLRSEDTAVYYCARDSTVVAPMDYWGQGTTVTVSS
MFI at 0.00128 nM [28]: 199 MFI | MFI at 0.0064 nM [28]: 281 MFI | MFI at 0.032 nM [28]: 528 MFI | MFI at 0.16 nM [28]: 1050 MFI | MFI at 0.8 nM [28]: 1330 MFI | MFI at 4 nM [28]: 1500 MFI | MFI at 20 nM [28]: 1620 MFI | MFI at 100 nM [28]: 1870 MFI | MFI [29]: 13800 MFI | MFI [6]: 577 MFI | MFI [30]: 14500 MFI | MFI [8]: 605 MFI | MFI [31]: 11900 MFI | MFI [32]: 15400 MFI | MFI [10]: 495 MFI | MFI [11]: 580 MFI | MFI [33]: 4700 MFI | MFI [13]: 343 MFI | MFI [34]: 1340 MFI | MFI [14]: 8510 MFI | MFI [15]: 185 MFI | MFI [35]: 458 MFI | MFI [16]: 9180 MFI | MFI [17]: 118 MFI | MFI [36]: 243 MFI | MFI [18]: 7810 MFI | MFI [19]: 10500 MFI | MFI [20]: 99 MFI | MFI [21]: 3970 MFI | MFI [22]: 1340 MFI | MFI [23]: 494 MFI | MFI [24]: 276 MFI | Emax of OD450 nm binding value [25]: 0.05 OD450 nm | Emax of OD450 nm binding value [26]: 0.06 OD450 nm | Kd [27]: 0.395 nM | koff [27]: 0.000156 s⁻¹ | kon [27]: 394000 M⁻¹ s⁻¹
